The test system of series [1] is CCCC(=O)SCCNC(=O)CCNC(=O)[C@H](O)C(C)(C)COP(=O)(O)OP(=O)(O)OC[C@H]1O[C@@H](n2cnc3c(N)ncnc32)[C@H](O)[C@@H]1OP(=O)(O)O. In words: purified protein, by the assay type. To be noted: other: pH 7.15, 30° C., 500 μM NADH, 1 mM DTT, acyl-CoA 0.03 mM to 2 mM.
Protocol: (§3) Enzyme assays were conducted by using Bio-Tek PowerWave XS microplate spectrophotometer. CoA-acylating aldehyde dehydrogenase activity was measured by the decrease of absorbance at 340 nm, corresponding to depletion of NADH. […] The addition of the acyl-CoA initiated the reaction. kcat and Km were determined by nonlinear regression fitting to Michaelis-Menten equation using graphing software Origin.
Series [2] concerns CC(=O)SCCNC(=O)CCNC(=O)[C@H](O)C(C)(C)COP(=O)(O)OP(=O)(O)OC[C@H]1O[C@@H](n2cnc3c(N)ncnc32)[C@H](O)[C@@H]1OP(=O)(O)O. The experiment in a line: purified protein, by the assay type. Particulars: other: pH 7.15, 30° C., 500 μM NADH, 1 mM DTT, acyl-CoA 0.03 mM to 2 mM.
Protocol: as §3
Series [3] is described as follows: CoA-acylating aldehyde dehydrogenase (PduP) assay, butyryl-CoA reduction. It counts as biochemical. To be noted: purified under aerobic condition; 500 μM NADH, 1 mM DTT, pH 7.15, 30° C. The method, then:
Protein purification was done by using His-Spin Protein miniprep purification kit from Zymo following manufacturer's manual. Overnight culture of E. coli strain BL-21(DE3) harboring different pCDF-pdup plasmid was used to inoculate fresh 20 ml LB. The newly inoculated culture was incubated at 37° C. until OD600 nm reaches 0.6 which was then induced with 1 mM IPTG. The induced cultures were then incubated overnight in 30° C. rotary shaker to allow protein expression. The cultures were then harvested by centrifugation at 4,300×g for 20 min. The pellet was then resuspended with 1 mL of Zymo His-binding buffer and mixed with 1 mL of 0.1 mm glass beads (Biospec). The sample was then homogenated using TissueLyser II (Quiagen).
(§1) Enzyme assays were conducted by using Bio-Tek PowerWave XS microplate spectrophotometer. CoA-acylating aldehyde dehydrogenase activity was measured by the decrease of absorbance at 340 nm, corresponding to depletion of NADH. […] For determining specific activity for other chain length acyl-CoA, 500 μM was used. The mixture excluding acyl-CoA was incubated for 5 minutes at 30° C. The addition of the acyl-CoA initiated the reaction. kcat and Km were determined by nonlinear regression fitting to Michaelis-Menten equation using graphing software Origin.
(§2) To characterize these PduP homologues, plasmids harboring individual pduP genes were constructed with a poly-His6 tag (plasmids pCDF-pduP_ahyd, pCDF-pdup_kpne, pCDF-pdup_lbre, pCDF-pdup_lmon, pCDF-pdup_sent, and pCDF-pdup_pgin). PduP homologues were then purified under aerobic condition without cleaving off His tags. The activities of the enzymes were determined using acyl-CoA with different chain lengths, and the disappearance of NADH was monitored.
The efficiency of these PduP homologues were assessed.

Series [4] is described as follows: Substrate chain length specificity of PduP. In kind it is biochemical. To be noted: acyl-CoA chain lengths C2 to C12. The method, then:
FIG. 3A-B Substrate chain length specificity of CoA-acylating aldehyde dehydrogenases, PduP. A) Specific activity of different PduP (pmol min^−1 mg^−1). B) Relative activity of PduP. Specific activity was determined with substrate concentration of 1 mM acyl-CoA, 500 uM NADH, 1 mM DTT in 50 mM potassium phosphate buffer at pH 7.15 at 30° C.
as §1, §2

On to “Porphyromonas gingivalis PduP, CoA-acylating propionaldehyde dehydrogenase (PduP_P.gin, YP_001928839, SEQ ID NO:51 and 52), poly-His6 tagged (Porphyromonas gingivalis ATCC 33277)”, for which the values for the Km in series [1] and in series [2] were 256.0 ± 40.5 µM and 75.9 ± 25.1 µM, respectively. On to “Klebsiella pneumoniae PduP, CoA-acylating propionaldehyde dehydrogenase (PduP_K.pne, YP_001336844, SEQ ID NO:45 and 46), poly-His6 tagged (Klebsiella pneumoniae subsp. pneumoniae NTUH-K2044)”, for which the Km in series [1] came to 56.0 ± 25.9 µM; in series [2], 181.4 ± 25.1 µM. For the molecule “Listeria monocytigenes PduP, CoA-acylating propionaldehyde dehydrogenase (PduP_L.mon, NP_464690, SEQ ID NO:49 and 50), poly-His6 tagged (Listeria monocytogenes EGD-e)”, the values for the Km in series [1] and in series [2] were 71.7 ± 20.3 µM and 92.6 ± 20.1 µM, respectively. Regarding “Salmonella enterica PduP, CoA-acylating propionaldehyde dehydrogenase (PduP_S.ent, AAD39015, SEQ ID NO:33 and 34), poly-His6 tagged (Salmonella enterica subsp. enterica serovar Typhimurium str. LT2)”, the values for the Michaelis-Menten constant (Km) in series [1] and in series [2] were 87.0 ± 24.8 µM and 342.1 ± 94.8 µM, respectively.

B1: A. hyd: PduP homologue from Aeromonas hydrophila, YP_855873; SEQ ID NO:43 and 44 (protein, listed as Aeromonas hydrophila)
chain: MLSRQNARELVRNAKQAQVIMATFSQQKIDAIVKNVAEEAARHAETLAKMAAEETGFGNWQDKVLKNRFASLHVYDAIKEMKTVGIIHDDQAKKVMDVGVPLGVICALVPSTNPTSTIFYKTLIALKAGNAIIFSPHPGARQCSWKAIEIVKRAAEAAGAPAGIVDGVTQLTLEATSELMHSKDVSLILATGGEGMVRAAYASGTPTISGGPGNGPAFIERSADIHQAVKDIITSKTFDNGVICASEQSIIVERCIYDEVHRELAAQGAYFMNEDEAARMAALLLRPNGTINPKVVGKTALHLSQLAGFSVPPSTRVLVAEQTTVSHSNPYSREKLCPVLGLYVEEEWRAACHRVVELLTNEGLGHTLVIHTRNQDVIRQFSLEKPVNRILINTPAALGGIGATTNLTPALTLGCGAVGGGSSSDNVGPMNLLNIRKVGYGVRTIEELRAPIQPVAVQPASAAPTAPQPCSILDDARFSAPAPACHSADDRFAGASAEVGGEISEQNVERVIRQVLERLGK
B1: in series [3], the “Specific activity for butyryl-CoA reduction” value turned out to be 1.7 ± 0.6 µmol/min/mg.

B2: S. ent: CoA-acylating propionaldehyde dehydrogenase (PduP) from Salmonella enterica, AAD39015; SEQ ID NO:33 and 34 (protein, listed as Salmonella enterica)
chain: MNTSELETLIRTILSEQLTTPAQTPVQPQGKGIFQSVSEAIDAAHQAFLRYQQCPLKTRSAIISAMRQELTPLLAPLAEESANETGMGNKEDKFLKNKAALDNTPGVEDLTTTALTGDGGMVLFEYSPFGVIGSVAPSTNPTETIINNSISMLAAGNSIYFSPHPGAKKVSLKLISLIEEIAFRCCGIRNLVVTVAEPTFEATQQMMAHPRIAVLAITGGPGIVAMGMKSGKKVIGAGAGNPPCIVDETADLVKAAEDIINGASFDYNLPCIAEKSLIVVESVAERLVQQMQTFGALLLSPADTDKLRAVCLPEGQANKKLVGKSPSAMLEAAGIAVPAKAPRLLIALVNADDPWVTSEQLMPMLPVVKVSDFDSALALALKVEEGLHHTAIMHSQNVSRLNLAARTLQTSIFVKNGPSYAGIGVGGEGFTTFTIATPTGEGTTSARTFARSRRCVLTNGFSIR
Consider B2, for which the “Acyl-CoA substrate favoured (highest specific activity)” value (“Acyl-CoA substrate favoured” below) in series [4] is given as “highest for propionyl-CoA reduction”. Also, the “Specific activity for butyryl-CoA reduction” value in series [3] was found to be 27 ± 14 µmol/min/mg.

B3: L. mon: PduP homologue from Listeria monocytigenes, NP_464690; SEQ ID NO:49 and 50 (protein)
chain: MESLELEKLVKKVLLEKLAEQKGIPVKTMTKGAKSGVFDTVDEAVQAAVIAQNSYKEKSLEERRNVVKAIREALYPEIESIAARAVAETGMGNVADKILKNTLAIEKTPGVEDLYTEVATGDNGMTLYELSPYGVIGAVAPSTNPTETLICNTIGMLAAGNAVFYSPHPGAKNISLWLIEKLNTIVRESCGVDNLVVTVEKPSIQAAQEMMNHPKVPLLVITGGPGVVLQAMQSGKKVIGAGAGNPPSIVDETANIEKAAADIVDGASFDHNILCIAEKSVVAVDSIADFLMFQMEKNGALHVTNPSDIQKLEKVAVTDKGVTNKKLVGKSASEILKEAGIACDFSPRLIIVETEKTHPFATVELLMPIVPVVRVPNFEEALEVAIELEQGLHHTATMHSQNISRLNKAARDMQTSIFVKNGPSFAGLGFRGEGSTTFTIATPTGEGTTTARHFARRRRCVLTDGFSIR
modifications: Listeria monocytogenes
For the molecule B3, the “Acyl-CoA substrate favoured” value in series [4] is listed as “highest for propionyl-CoA reduction”. The “Specific activity for butyryl-CoA reduction” value in series [3] worked out at 17 ± 2 µmol/min/mg.

B4: P. gin: PduP homologue from Porphyromonas gingivalis, YP_001928839; SEQ ID NO:51 and 52 (protein, listed as Porphyromonas gingivalis)
chain: MEIKEMVSLARKAQKEYQATHNQEAVDNICRAAAKVIYENAAILAREAVDETGMGVYEHKVAKNQGKSKGVWYNLHNKKSVGILNIDERTGMIEIAKPIGVVGAVTPTTNPIVTPMSNIIFALKTCNAIIIAPHPRSKKCSAHAVRLIKEAIAPFNVPEGMVQIIEEPSIEKTQELMGAVDVVVATGGMGMVKSAYSSGKPSFGVGAGNVQVIVDSNIDFEAAAEKIITGRAFDNGIICSGEQSIIYNEADKEAVFTAFRNHGAYFCDEAEGDRARAAIFENGAIAKDVVGQSVAFIAKKANINIPEGTRILVVEARGVGAEDVICKEKMCPVMCALSYKHFEEGVEIARTNLANEGNGHTCAIHSNNQAHIILAGSELTVSRIVVNAPSATTAGGHIQNGLAVTNTLGCGSWGNNSISENFTYKHLLNISRIAPLNSSIHIPDDKEIWEL
As to B4, the “Acyl-CoA substrate favoured” value in series [4] was “dodecanoyl-CoA”. The “Specific activity for butyryl-CoA reduction” value in series [3] was 0.49 ± 0.2 µmol/min/mg.
